Assay results: patent US20260151519A1 (AKTIS ONCOLOGY, published 2026)
Bridges are numbered along the chain shown (N, C = ends). Primed or numbered codes have the meaning given here. Where no end group is shown, it is not given here. The star is where a group is joined. FITC = O=C1OC2(c3ccc(O)cc3Oc3cc(O)ccc32)c2ccc(NC(=S)*)cc21; DTPA = O=C(O)CN(CCN(CC(=O)O)CC(=O)O)CCN(CC(=O)O)CC(=O)*; Biotin = O=C1N[C@H]2[C@H](CS[C@H]2CCCCC(=O)*)N1; PEG4″ = 4(ethylene glycol)

biological target: T1, Human Nectin-4 (human, UniProt Q96NY8 32-349, limits assumed); test: Table 2B (DELFIA or SPR)
T1 construct: Protein immobilised on the SPR chip; also called target protein
T1 sequence: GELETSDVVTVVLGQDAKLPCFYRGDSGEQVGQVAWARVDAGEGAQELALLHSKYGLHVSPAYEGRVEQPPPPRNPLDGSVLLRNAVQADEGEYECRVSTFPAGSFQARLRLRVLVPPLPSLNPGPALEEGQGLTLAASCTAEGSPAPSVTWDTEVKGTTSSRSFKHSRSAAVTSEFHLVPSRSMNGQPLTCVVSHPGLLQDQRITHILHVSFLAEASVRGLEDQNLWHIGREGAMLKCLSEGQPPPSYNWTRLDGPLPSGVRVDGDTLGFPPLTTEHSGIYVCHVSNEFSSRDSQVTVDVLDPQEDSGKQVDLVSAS

| Binder | Kd [nM] |
| --- | --- |
| Ac-CEYDEEFFAGLKRLRGGDICYYIKKKFKKVPDLCIEEILDKLGC-OH (designed binder, disulfide 1-34, 20-44) [C16] | 4.34 |
| {Biotin-PEG4″}-CEDDEEFFADLKRLRGGDICYYIKLKFDKVPDLCIKEILDKLGC (designed binder, disulfide 1-34, 20-44) [C2] | 58.9 |
| Ac-CEYDEEFFAGLHRLRGGDICYYIKKKFDKVPDLCIEEILDKLGC-OH (designed binder, disulfide 1-34, 20-44) [C20] | 22.1 |
| Ac-CEYDEEFFSGLKRLRGGDICYYIKKKFKKVPDLCIEEILDKLGC-OH (designed binder, disulfide 1-34, 20-44) [C28] | 5.29 |
| Ac-CEYDEEFFEGLKKLRGGDICYYIKKKFKKVPDLCIEEILDKLGC-OH (designed binder, disulfide 1-34, 20-44) [C30] | 24.9 |
| Ac-CEYDEEFFTGLKRLRGGDICYYIKKKFKKVPDLCIEEILDKLGC-OH (designed binder, disulfide 1-34, 20-44) [C29] | 3.91 |
| Ac-CEYDEEFFAGLKRLRGGDICYYIKKKFDKVPDLCIKEILDKLGC-OH (designed binder, disulfide 1-34, 20-44) [C5] | 18.9 |
| Ac-CEYDEEFFNGLKRLRGGDICYYIKKKFKKVPDLCIEEILDKLGC-OH (designed binder, disulfide 1-34, 20-44) [C17] | 4.16 |
| Ac-CEYDEEFFLGLKRLRGGDICYYIKKKFKKVPDLCIEEILDKLGC-OH (designed binder, disulfide 1-34, 20-44) [C34] | 3.17 |
| H-CEYDEEFFAGLKRLRGGDICYYIKKKFDKVPDLCIKEILDKLGC-OH (designed binder, disulfide 1-34, 20-44) [C3] | 9.68 |
| Ac-CEYDEEFFAGLHRLRGGDICYYIKKKFPKVPDLCIEEILDKLGC-OH (designed binder, disulfide 1-34, 20-44) [C21] | 49.4 |
| Ac-CEYDEEFFAGLKRLRGTDICYYIKKKFDKVPDLCIEEILDKLGC-OH (designed binder, disulfide 1-34, 20-44) [C22] | 12.8 |
| Ac-CEYDEEFFEGLKRLRGGDICYYIKKKFKKVPDLCIEEILDKLGC-OH (designed binder, disulfide 1-34, 20-44) [C26] | 5.04 |
| Ac-CEYDEEFFQGLKRLRGGDICYYIKKKFKKVPDLCIEEILDKLGC-OH (designed binder, disulfide 1-34, 20-44) [C33] | 3.47 |
| H-CEDDFQFFADLKRLRGGDICYYIRLKFDKVPDLCIKEILDKLGC-OH (designed binder, disulfide 1-34, 20-44) [C4] | 14.4 |
| Ac-CEYDEEFFNGLHRLRRGDICYYIKKKFKKVPDLCIEEILDKLGC-OH (designed binder, disulfide 1-34, 20-44) [C18] | 38.2 |
| Ac-CEYDEEFFAGLKRLRRGDICYYIKKKFDKVPDLCIEEILDKLGC (designed binder, disulfide 1-34, 20-44) [C14] | 14.1 |
| Ac-CEYDEEFFAGLHRLRGTDICYYIKKKFDKVPDLCIEEILDKLGC-OH (designed binder, disulfide 1-34, 20-44) [C23] | 18.5 |
| Ac-CEYDEEFFDGLKRLRGGDICYYIKKKFKKVPDLCIEEILDKLGC-OH (designed binder, disulfide 1-34, 20-44) [C27] | 9.85 |
| Ac-CEYDEEFFTGLKRLRGGDICYYIKKKFKKVPKLCIEEILDKLGC-OH (designed binder, disulfide 1-34, 20-44) [C31] | 1.31 |
| Ac-CEYDEEFFAGLHRLRGTDICYYIKKKFPKVPDLCIEEILDKLGC-OH (designed binder, disulfide 1-34, 20-44) [C24] | 84.4 |
| Ac-CEYDEEFFTGLKRLRGGDICYYIKKKFKKVPELCIEEILDKLGC-OH (designed binder, disulfide 1-34, 20-44) [C32] | 3.26 |

| Binder | Kd [nM] |
| --- | --- |
| Ac-CEYDEEFFNGLKRLRGGDICYYIKKKFDKVPDLCIEEILDKLGC-OH (designed binder, disulfide 1-34, 20-44) [C13] | 6.01 |
| Ac-CEDDFQFFADLKRLRGGDICYYIRLKFDKVPDLCIKEILDKLGC-OH (designed binder, disulfide 1-34, 20-44) [C6] | 17.1 |
| H-CEYDEEFFAGLKRLRGGDICYYIKKKFDKVPDLCIEEILDKLGC-OH (designed binder, disulfide 1-34, 20-44) [C7] | 5.5 |
| {DTPA-PEG4″}-CEYDEEFFAGLKRLRGGDICYYIKKKFDKVPDLCIEEILDKLGC-OH (designed binder, disulfide 1-34, 20-44) [C11] | 6.86 |
| {FITC}-CEYDEEFFAGLKRLRGGDICYYIKKKFDKVPDLCIEEILDKLGC-OH (designed binder, disulfide 1-34, 20-44) [C10] | 37.6 |
| Ac-CEYDEEFFAGLKRLRGGDICYYIKKKFPKVPDLCIEEILDKLGC-OH (designed binder, disulfide 1-34, 20-44) [C19] | 10.8 |
| Ac-CEYDEEFFKGLKRLRGGDICYYIKKKFKKVPDLCIEEILDKLGC-OH (designed binder, disulfide 1-34, 20-44) [C25] | 3.75 |
| Ac-CEYDEEFFNGLKRLRRGDICYYIKKKFDKVPDLCIEEILDKLGC-OH (designed binder, disulfide 1-34, 20-44) [C15] | 12.2 |
| {Biotin-PEG4″}-CDYDEQFFTALKRLRGDDICEYIQASFQYLPGLCIEEILDNLGCS-OH (designed binder, disulfide 1-34, 20-44) [C193] | 1 |
| {Biotin-PEG4″}-CDYDEQFFTALKRLRGADICEYIQASFQYLPGQCIEEILDNLGCS (designed binder, disulfide 1-34, 20-44) [C209] | 1.25 |
| {Biotin-PEG4″}-CEYDEEFFTALKRLRGGDICDYIQASFQYLPGECIEEILDNLGCS-OH (designed binder, disulfide 1-34, 20-44) [C203] | 2.3 |
| {Biotin-PEG4″}-CEYDEQFFTALKRLRGADICDYIQASFQYLPGLCIEEILDNLGCS-OH (designed binder, disulfide 1-34, 20-44) [C194] | 1.1 |
| {Biotin-PEG4″}-CDYDEQFFTALKRLRGGDICEYIQASFQYLPGQCIEEILDNLGCS (designed binder, disulfide 1-34, 20-44) [C211] | 1.19 |
| {Biotin-PEG4″}-CEYDEEFFTALKRLRGGDICDYIQASFQYLPGLCIEEILDNLGCS-OH (designed binder, disulfide 1-34, 20-44) [C200] | 2 |
| {Biotin-PEG4″}-CEYDEEFFTALKRLRGGDICEYIQASFQYLPGECIEEILQNLGCS-OH (designed binder, disulfide 1-34, 20-44) [C204] | 1.98 |
| {Biotin-PEG4″}-CEYDEEFFTALKRLRGGDICDYIQASFQYLPGECIEEILQNLGCS-OH (designed binder, disulfide 1-34, 20-44) [C205] | 2.1 |
| {Biotin-PEG4″}-CDYDEQFFTALKRLRGADICEYIQASFQYLPGLCIEEILDNLGCS-OH (designed binder, disulfide 1-34, 20-44) [C207] | 1.08 |
| {Biotin-PEG4″}-CEYDEEFFTALKRLRGGDICEYIQAAFQYLPGLCIEEILDNLGCS-OH (designed binder, disulfide 1-34, 20-44) [C198] | 2.3 |
| {Biotin-PEG4″}-CEYDEEFFTALKRLRGGDICEYIQASFQYLPGECIEEILDNLGCS (designed binder, disulfide 1-34, 20-44) [C202] | 2.2 |
| {Biotin-PEG4″}-CEYDEEFFTALKRLRGADICDYIQASFQYLPGLCIEEILDNLGCS-OH (designed binder, disulfide 1-34, 20-44) [C195] | 2.3 |
| {Biotin-PEG4″}-CDYDEQFFTALKRLRGGDICEYIQASFQYLPGECIEEILDNLGCS (designed binder, disulfide 1-34, 20-44) [C210] | 1.54 |
